This is an account of results in paper PMC7716884.

The experiment deals with insulin lispro. In words: SEC-MALS. A general note: SEC sorts molecules by how far they enter the pores of the column.

insulin lispro (ligand): the stoichiometry N was found to be 6.

What is called stoichiometry N is a count of units in the complex or per binding partner.
